Reference: the nanobody polyreactivity screen of Harvey et al. (2022)

Assay: yeast display, Sf9 membrane polyspecificity reagent, FACS + sequencing; frameworks hold sequencing errors
Summary of the method: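 Using colony PCR, genes from sorted yeast display clones were amplified, then sequenced on MiSeq at 2 × 250 and filtered by CDR length. The clones had been stained with 10% biotinylated, detergent-solubilized Sf9 membrane reagent for 1 hour at 4 °C and sorted by FACS into low and high (top ~1%) gates on anti-HA and streptavidin fluorescence. Polyreactivity labels come from the gate of origin.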

Sequence | polyreactivity (PSR sort gate)
QVQLVESGGGLVQAGGSLRLSCAASGSIFIYNAMGWYRQAPGKERELVASITYRGGSTYYADSVKGRFTISRDKAKNTVYLQMNSLKPEDTAVYYCNAPQYFSYSWPYPREYDYWGQGTQVTVSS | high polyreactivity
QVQLVESGGGLVQAGGSLRLSCAASGSIFIYNVMGWYRPAPGKERELVATSRGSGGSTYYADSVKGRFTISRDTAKNTVYLHMNSLKPEDTAVYFCCRRDYPYQWGRAYNYWGQGTQVTVSS | high polyreactivity
QVQLVESGGGLVQAGGSLRLSCAASGSIFIYYAMGWYRQAPGKERELVAAITWRSGSTYYADSVKGRFTISRDNAKNTVYFQRNSLKPEDNAVNYCAAYAWTATDSARPYGYDYWGQGTQVTVSS | low polyreactivity
QVQLVESGGGLVQAGGSLRLSCAASGSIFKAYAMGWYRQAPGKERELVAAISTSDGSTYYADSVKGRFTISRDNAKNNVYLLMNSLKPEDTAVYYCATEYDYWDDSYDYWGQGTQVTVSS | low polyreactivity
QVQLVESGGGLVQAGGSLRLSCAASGSIFKAYAMGWYSQAPGKERELVAAITWSGGSTYYADSVKGRFTISRDNAKYTVYLQMNSLKPEDTAVYYCAADRLEGYYEDDATGFDYWGQGTQVTVSS | low polyreactivity
QVQLVESGGGLVQAGGSLRLSCAASGSIFKCNAMGWYRQAPGKERELVASITRSGGSTYYADSVKGRFTISRDNAKNTVYLQMNSLKPEDTAVYYCARSYGWYRWAGYDYWGQGTQVTVSS | high polyreactivity
QVQLVESGGGLVQAGGSLRLSCAASGSIFKFYAMGWYRQAPGKEREMVAVITYIGGSTYYADSVKGRFTISRDNAKNTVYLQMNSLKPEDTAVYYCNKDGAFHWVGSDPVYLFEYWGQGTQVTVSS | low polyreactivity
QVQLVESGGGLVQAGGSLRLSCAASGSIFKGNAMGWYRQAPGKERDLVAAISRSGGSTYYADSVKGRFTISRDNAKNTVYLQMNSLKPEDTAVYYCNAVRRNTVRSKGRYDYWGQGTQVTVSS | high polyreactivity
QVQLVESGGGLVQAGGSLRLSCAASGSIFKINAMGWYRQAPGKEREWVAAITRSGGSTYYADSVKGRFTISLDNAKNTVYLQMNSLKPEDTAVYYCNASTSRSTSLSSRFYYWGQGTQVTVSS | high polyreactivity
QVQLVESGGGLVQAGGSLRLSCAASGSIFKINTMGWYRQAPGKERELVAAISKRGGSTYYADSVKGRFTISRDNAKNTVYLQMNSLKTEDTAVYYCAARQFYKYYYWGQGTQVTVSS | high polyreactivity
QVQLVESGGGLVQAGGSLRLSCAASGSIFKPYAMGWYRQAPGKERELVAVISWRGGSTYYADSVKGRFTISRDYAKNTVYFQMNSLKPEDTAVYYCAARRYRYFDGTVPLDYWGQGTQVSVSS | high polyreactivity
QVQLVESGGGLVQAGGSLRLSCAASGSIFKRNAMVSYRQAPGKERELVASISSGGSTHYADSVKGRFTISRDNAKNTVYLQMNSLTPEDTAVYYCAATSIRWSVCSFRRDYWGQGTQVTVSS | low polyreactivity
QVQLVESGGGLVQAGGSLRLSCAASGSIFKRNDMGWYRQAPGKERELVAAITWSGGSTYYADSVKGRFTISRDNAKNTVYLQMNSLKPEDTAVYYCNAARDDWYIIKYDYWGQGTQVTVSS | low polyreactivity
QVQLVESGGGLVQAGGSLRLSCAASGSIFKRNDMGWYRQAPGKERELVASISWGGTSTYYADSVKGRLTISRDLAKNTVYLKMYSLKPEDTAVYYCAARGLYTYKTYDDWGQGTLVTVSS | low polyreactivity
QVQLVESGGGLVQAGGSLRLSCAASGSIFKRYAMGWDRQAPGKERELVASISSRGSSTNYADSVKGRFTISRDNAKNTVYLQMNSLKPEDTAVYYCAAEVYRGKYWSTYRGGDYWGQGTQVTVSS | high polyreactivity
QVQLVESGGGLVQAGGSLRLSCAASGSIFKTNARGLYRQAPGTEREFVAAISWSGGSTYADSVKGRFTISRDTAKNTVYLQMNSLKPEDTAVYYCAAVDYYYYGVYSSWYDYWGQGTQVTVSS | low polyreactivity

Sequence | polyreactivity (PSR sort gate)
QVQLVESGGGLVQAGGSLRLSCAASGSIFKTYAMGWYRQAPGKERELVAAISRSTSRTYYADSVKGRFTISRDNAKNTVYLQMNSLKPEDTAVYYCAAHRSTRGTKLYYWGQGTQVTVSS | high polyreactivity
QVQLVESGGGLVQAGGSLRLSCAASGSIFKVYAMGWYRQAPGKERELVAAITGGGRTYYADSVKGRFTISRDNAKNTVYLQMNSLKPEDTAVYYCNAVRGGYHVRYDYWGQGTQVTVSS | high polyreactivity
QVQLVESGGGLVQAGGSLRLSCAASGSIFKVYAMGWYRQAPGKEREWVAAITWRGGSTYYADSVKGRFTISRDNAKNTVYLQMKSLKPEDTAVYYCGTEYCWKYDYWGQGTQVTVSS | low polyreactivity
QVQLVESGGGLVQAGGSLRLSCAASGSIFKWYAMGWYRQAPGKEREFVAAITNGGGSTYYADSVKGRFTISRDNAKNTVYLQMNSLKPEDTAVYYCAKDGHSYYPWEYDYWGQGTQVTVSS | low polyreactivity
QVQLVESGGGLVQAGGSLRLSCAASGSIFKWYTMGWYRQAPGKERELVAAITWGGGSTYYADSVKGRFTISRDNEKNTVYLQMNSLKPEDTAVYYCNREGWHYGPYGYWGQGTLVTVSS | low polyreactivity
QVQLVESGGGLVQAGGSLRLSCAASGSIFKYFTMGWYRHAPGKERELVAYISSGGSTKYADSVKGRFTISRDNAKNTVYLQMNSLKPEDTAVYYCAKRYYYFYPDYDYWGQGTQVTVSS | high polyreactivity
QVQLVESGGGLVQAGGSLRLSCAASGSIFKYNAMGWYRQAPGKERELVAAIRWSGVGTRYADSVKGRFTISRDNAKNTVYLQMNSLKPEDTAVYYCAADVTKYHDGHEYDYWGQGTQVTVSS | low polyreactivity
QVQLVESGGGLVQAGGSLRLSCAASGSIFKYYAMGWYRQAPGKERELVAAISNGGSTNYADSLKGRFTISRDNAKNTVYLQMNSLKPEDTAVYYCAAGWFGYSAKYDYWGQGTRVTVSS | high polyreactivity
QVQLVESGGGLVQAGGSLRLSCAASGSIFKYYTMGGYRQAPGKERELVAAISGSGSRTYYADSVKGRFTISRDNAKNTVYLQMNSLKPEDTAVYYCAAEVKDSFVNAKSYYWGQGTQVTVSS | high polyreactivity
QVQLVESGGGLVQAGGSLRLSCAASGSIFKYYTMGWYRQAPGKERELVAAISGSGSRTYYADSVKGRFTISRDNAKNTVYLQMNSLKPEDTAVYYCAAEVKDSFVNAKSYYWGQGTQVTVSS | high polyreactivity
QVQLVESGGGLVQAGGSLRLSCAASGSIFKYYTMGWYRQAPGKERELVSGISYRGGSTYYADSVKGRFTISRDNAKNTVYLQMNSLKPEDTAVYYCNAVQLSGGDYWGQGTQVTVSS | high polyreactivity
QVQLVESGGGLVQAGGSLRLSCAASGSIFLAYAMGWYRQAPGKERELVAAITAGTGSTYYADSVKGRFTISRDNAKNTVYLQMNSLKPEDTAVYYCAKAVSLFRGPFSSFDYWGQGTQVTVSS | low polyreactivity
QVQLVESGGGLVQAGGSLRLSCAASGSIFLDNAKGWYRQAPGKERELVSAISSGGNTNYADSVKGRFTISRDNAKNTVSLQMNSLKPEDTAVYYCAADPTKWHYYVPRYYYWGQGTQVTVSS | low polyreactivity
QVQLVESGGGLVQAGGSLRLSCAASGSIFLDYAMGWYRQAPGKERELVAGITISGGSTYYADSVKGRFTISRDNAKNTVYLQMNSLKPEDTSVYYCAKVAPRSSSSQEYYYWGQGTQVTVSS | low polyreactivity
QVQLVESGGGLVQAGGSLRLSCAASGSIFLEYAMGWYRQAPGKERELVAAISSSGGSTYYADSVKGRFTISRDNAKYTVYLQMNSLKPEDTAVYYCAAGGHYYSSPGYNYWGQGTQVTVSS | high polyreactivity
